Bridge positions count the residues as written; N and C are the ends. Ends that are not written are not given here. COCH2 = acetyl group that carries the bridge

The target of assay [1] is T1, FGFR3 Protein, Human, Recombinant (ECD, His Tag) (Sino Biological, 16044-H08H) (human, UniProt P22607 23-375).
T1 construct: extracellular domain; bought reagent; not shown: His tag
T1 sequence (looked up): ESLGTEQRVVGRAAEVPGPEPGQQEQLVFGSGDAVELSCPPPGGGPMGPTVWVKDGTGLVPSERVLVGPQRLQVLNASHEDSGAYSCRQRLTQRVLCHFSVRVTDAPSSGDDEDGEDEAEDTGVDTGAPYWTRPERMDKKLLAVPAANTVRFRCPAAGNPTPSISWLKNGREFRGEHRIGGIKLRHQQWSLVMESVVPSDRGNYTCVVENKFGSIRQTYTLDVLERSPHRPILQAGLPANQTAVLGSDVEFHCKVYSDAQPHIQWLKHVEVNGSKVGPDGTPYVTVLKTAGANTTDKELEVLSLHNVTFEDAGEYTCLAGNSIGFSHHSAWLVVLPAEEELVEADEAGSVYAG
Briefly: SPR, peptide immobilized, 1 umol/L FGFR. How it is done: (§1) A CM5 sensor chip (Cytiva, 29149603) was set in Biacore-T200 (manufactured by Cytiva) which is a surface plasmon resonance device, and an HBS-EP buffer (Cytiva, BR100826) was added as a running buffer at a flow rate of 10 μL/min to equilibrate the flow channel. Next, 70 μL of a mixed aqueous solution of 0.2 mol/L 1-(3-dimethylaminopropyl)-3-ethylcarbodiimide (EDC) and 0.05 mol/L N-hydroxysuccinimide (NHS) was added to activate the sensor chip. Then, a cyclic peptide prepared to 2 mg/mL in HBS-EP buffer was added thereto to perform immobilization at about 200 RU. Thereafter, the blocking treatment was performed with an ethanolamine solution. In addition, in another flow channel of the same sensor chip, blocking treatment was performed immediately after activation without […].
(§2) After various FGFRs (FGFR1 Protein, Human, Recombinant (His Tag) (Sino Biological, 10616-H08H), FGFR3 Protein, Human, Recombinant (ECD, His Tag) (Sino Biological, 16044-H08H), FGFR4 Protein, Human, Recombinant (His Tag) (Sino Biological, 10538-H08H)) diluted with HBS-EP to 1 μmol/L at 25° C. was added to each flow channel of the cyclic peptide-immobilized sensor chip prepared above, for 10 minutes, HBS-EP was allowed to flow as a running buffer for 30 minutes, and the binding of various FGFRs to the cyclic peptide was measured. […] The binding amount of the cyclic peptide was evaluated from the difference between the measured value of Biacore-T200 in the flow channel in which the cyclic peptide was immobilized and the measured value of Biacore-T200 in the flow channel in which the cyclic peptide was not immobilized, in a case where 1 μmol/L FGFR was allowed to flow.
(§3) The binding amount of FGFR evaluated above was normalized to the binding amount of FGFR molecules per one molecule of the cyclic peptide using the molecular weights of the cyclic peptide and FGFR, and the binding affinity to FGFR was evaluated according to the following evaluation criteria.
Background: In SPR one partner is held on a chip, and binding of the other changes the refractive index at the surface.

Assay [2] deals with T2, FGFR1 Protein, Human, Recombinant (His Tag) (Sino Biological, 10616-H08H) (human, UniProt P11362 22-376).
T2 construct: bought reagent; not shown: His tag
T2 sequence (looked up): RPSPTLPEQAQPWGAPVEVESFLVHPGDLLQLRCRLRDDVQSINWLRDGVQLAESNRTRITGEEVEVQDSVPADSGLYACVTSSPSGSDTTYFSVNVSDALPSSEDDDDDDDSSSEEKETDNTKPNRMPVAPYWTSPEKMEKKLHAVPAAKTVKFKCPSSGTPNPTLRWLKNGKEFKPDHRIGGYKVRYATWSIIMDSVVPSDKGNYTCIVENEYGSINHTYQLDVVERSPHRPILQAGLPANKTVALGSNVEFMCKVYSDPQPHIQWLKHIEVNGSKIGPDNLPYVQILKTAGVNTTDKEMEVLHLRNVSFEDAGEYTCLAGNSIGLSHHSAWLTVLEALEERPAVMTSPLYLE
Briefly: SPR, peptide immobilized, 1 umol/L FGFR. As to the method: as §1, §2, §3

The target in assay [3] is T3, FGFR4 Protein, Human, Recombinant (His Tag) (Sino Biological, 10538-H08H) (human, UniProt P22455 22-369).
T3 construct: bought reagent; not shown: His tag
T3 sequence (looked up): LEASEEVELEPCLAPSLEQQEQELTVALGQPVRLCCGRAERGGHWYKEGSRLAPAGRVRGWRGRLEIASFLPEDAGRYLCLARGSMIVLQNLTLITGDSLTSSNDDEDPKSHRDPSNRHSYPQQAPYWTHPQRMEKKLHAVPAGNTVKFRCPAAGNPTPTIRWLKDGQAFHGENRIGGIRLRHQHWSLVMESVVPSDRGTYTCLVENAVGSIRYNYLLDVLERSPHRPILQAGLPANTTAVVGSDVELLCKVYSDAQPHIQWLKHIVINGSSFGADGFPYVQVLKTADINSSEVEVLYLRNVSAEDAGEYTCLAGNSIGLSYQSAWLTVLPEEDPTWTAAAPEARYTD
Put plainly: SPR, peptide immobilized, 1 umol/L FGFR. How it is done:
as §1, §2, §3

Assay [4] deals with T4, Recombinant Human FGFR1 alpha (IIIc) Fc Chimera Protein, CF (R&D systems, 658-FR-050) (human, UniProt P11362 22-376).
T4 construct: bought reagent; not shown: Fc of the bought chimera
T4 sequence (looked up): T2 sequence (looked up)
Put plainly: SPR, FGFR1-Fc immobilized, 10 nmol/L peptide. As to the method: A CM5 sensor chip (Cytiva, 29149603) was set in Biacore-T200 (manufactured by Cytiva) which is a surface plasmon resonance device, and an HBS-EP buffer (Cytiva, BR100826) was added as a running buffer at a flow rate of 10 μL/min to equilibrate the flow channel. Next, 70 μL of a mixed aqueous solution of 0.2 mol/L 1-(3-dimethylaminopropyl)-3-ethylcarbodiimide (EDC) and 0.05 mol/L N-hydroxysuccinimide (NHS) was added to activate the sensor chip. Then, Recombinant Human FGFR 1 alpha (IIIc) Fc Chimera Protein CF (R&D systems, 658-FR-050) prepared at 50 nmol/L in an Acetate 4.5 buffer (Cytiva, BR100350) was added thereto to perform immobilization at about 5000 RU. Thereafter, the blocking treatment was performed with an ethanolamine solution. In addition, in another flow channel of the same sensor chip, blocking treatment was performed immediately after activation without immobilizing FGFR.
A cyclic peptide diluted to 10 nmol/L using HBS-EP was added to each flow channel of the FGFR-immobilized sensor chip produced above at 25° C. for 10 minutes, then HBS-EP was allowed to flow as a running buffer for 30 minutes, and the binding of the cyclic peptide to FGFR was measured. Thereafter, a regeneration treatment of removing the bound cyclic peptide was performed by repeating the flow of a regeneration liquid in which sodium chloride powder was dissolved in Glysine 1.5 (Cytiva, BR100354) to a final concentration of 0.15 mol/L for 1 minute in each flow channel twice. The binding amount of the cyclic peptide was evaluated from the difference between the measured value of Biacore-T200 in the flow channel in which FGFR was immobilized and the measured value of Biacore-T200 in the flow channel in which FGFR was not immobilated, in a case where a 10 nmol/L cyclic peptide was allowed to flow.

B1: SEQ ID NO: 382 (peptide)
peptide: HCSYERLQFHGHEAPFRVK(COCH2)VKKK
modifications: thioether 2-19; also: acetyl defined on Orn side-chain amine, here on K
notes: chemically synthesized
Regarding B1, the “binding amount (SPR, FGFR molecules bound per molecule of cyclic peptide at 1 umol/L FGFR)” value in assay [1] was 0.01 to 0.05 moleculesoffgfr/onemoleculeofthecyclicpeptide; in assay [2], ≥ 0.05 moleculesoffgfr/onemoleculeofthecyclicpeptide; in assay [3], ≥ 0.05 moleculesoffgfr/onemoleculeofthecyclicpeptide. For the same molecule, the “binding amount (SPR, cyclic peptide molecules bound per one molecule of FGFR at 10 nmol/L peptide)” value in assay [4] is ≥ 0.7 moleculesofthecyclicpeptide/onemoleculeoffgfr.

The values are drawn from patent publication US20260008818A1, “CYCLIC PEPTIDE OR SALT THEREOF, AND USES THEREOF” (FUJIFILM Corporation, priority 2023, published 2026).
